Test results reported in patent publication US20180346588A1.

Target: human mesothelin (MSLN) on the cell surface (human) (UniProt Q13421)
Assay: FACS on MiaPaCa-MSLN #2 cells, upper histogram and table

Chain of human mesothelin (MSLN) on the cell surface (human) (Q13421 other isoform, or with tags, fused parts or gaps limits assumed): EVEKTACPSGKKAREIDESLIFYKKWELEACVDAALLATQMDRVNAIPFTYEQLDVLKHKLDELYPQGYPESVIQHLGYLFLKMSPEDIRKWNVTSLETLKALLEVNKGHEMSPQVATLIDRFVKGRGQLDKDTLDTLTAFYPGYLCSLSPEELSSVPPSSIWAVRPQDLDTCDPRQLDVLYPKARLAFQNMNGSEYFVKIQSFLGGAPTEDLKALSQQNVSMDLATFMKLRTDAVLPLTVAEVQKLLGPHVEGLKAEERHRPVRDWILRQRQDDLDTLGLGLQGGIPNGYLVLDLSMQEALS

B1: BAY94-9343 (antibody, INN chains, looked up, V domains shown)
VH: QVELVQSGAEVKKPGESLKISCKGSGYSFTSYWIGWVRQAPGKGLEWMGIIDPGDSRTRYSPSFQGQVTISADKSISTAYLQWSSLKASDTAMYYCARGQLYGGTYMDGWGQGTLVTVSS
VL: DIALTQPASVSGSPGQSITISCTGTSSDIGGYNSVSWYQQHPGKAPKLMIYGVNNRPSGVSNRFSGSKSGNTASLTISGLQAEDEADYYCSSYDIESATPVFGGGTKLTVL
modifications: ravtansine (DM4) payload
In the case of B1, the Mean, FL2-H is reported as 2710.
